Test: yeast display, Sf9 membrane polyspecificity reagent, FACS + sequencing; frameworks hold sequencing errors
Summary of the method: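 Sorting gates, low and high (top ~1%), were placed on anti-HA fluorescence to track expression and on streptavidin fluorescence to track reagent binding. A clone's polyreactivity label is taken from the gate it came out of. The reagent was 10% biotinylated, detergent-solubilized Sf9 membrane, applied for 1 hour at 4 °C to galactose-induced yeast display cells.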

| Sequence | polyreactivity (PSR sort gate) |
| --- | --- |
| QDQLVESGGGLVQAGGSLRLSCAASGSTFTFYVMGWYRQAPGKERELVAAITASGGSTYYADSVKGRFTISRDNAKNTVYLQMNSLKPEDTAVYYCAARPTYYYSRTYDYWGQGTQVTVSS | low polyreactivity |
| QDQLVESGGGLVQAGGSLRLSCAASGSTFVYYAMGWYRQAPGKERELVAAISRTGNTYYADSVKGRFTISRDNAKNTVYLQMNSLKPEDSAVYYCAKDYWRAYGSYEYWGQGTQVTVSS | low polyreactivity |
| QDQLVESGGGLVQAGGSLRLSCAASGSTFYFNAMGWYRPAPGKEREFVAVIDGSGGFTYYADSVKGRFTISRDNAKNTVYLQLNILKPEDTAVYYCNADLVYNTFFYSGGDEYDYWGQGTQVNVSS | high polyreactivity |
| QDQLVESGGGLVQAGGSLRLSCAASGSTIWGNAMGWYRQAPGKERELVAAITSTGSTNYADSVKARFTISRDNAKNTVYLQMNSLKPEVTAVYYCATAYYHTYWPTRRYYYWGQGTQVTVSS | high polyreactivity |
| QDQLVESGGGLVQAGGSLRLSCAASGTFGGYAMGCYRQAPRKERELVARIRRNGGSTYYADSVKGRFTISRDNAKNTVYLQMNCLKPEDTAVYYCATYRYVYGTASYGYWGQGTQVTVSS | high polyreactivity |
| QDQLVESGGGLVQAGGSLRLSCAASGYTFDYNAMGWYRQAPGKEREFVAAIDWSGGNTYYADSVKGRFTISRDNAKNTVYLQMNSLKPEDTAVYYCNTVTEAVTRRYDYWGQGTQVTVSS | low polyreactivity |
| QDQLVESGGGLVQAGGSLRLSCAASGYTFFFYVMGWSRQAAGKERELVAAITFSVGSTYYADSVKRRFTISRDNAKNTVYLQMNSLKPEDTAVYYCAARGALYSHSYGSARYYYWGQGTQVTVSS | high polyreactivity |
| QDQLVESGGGLVQAGGSLRLSCAATGRIFKLYAMGWYRQAPGKERELVAAISSSGTRTYYADSVKGRFTISRDNAKNTVYLHMNSMKPEDTAVYYCAKRWPRKGNYPGSDYWGQGTQVTVSS | high polyreactivity |
| QDQLVESGGGLVQAGGSLRLSCAATGRIFVYYAMGWSRQAPGKERELVATISSGGSTYYADSVKGRFTISRDNAKNTVYLQMNSLKPDDTAVYYCAADNVNLYLAYYYKGDYWGQGTQVTVSS | low polyreactivity |
| QDQLVESGGGLVQAGGSLRLSCAATGRTFYFYTMGWYRQAPGKERELVATAITSGGSTNYADSVKGRFTISRDNAKNTVYLQMNSLKPEDTAVYYCAATLYWGWVFSYTSFDYWGQGTQVTVSS | low polyreactivity |
| QDQLVESGGGLVQAGGSLRLSCAAYGRTLRRYAMGWYRQAPGKERELVAAISRSGSSTYADSVKGRFTISRDNAKNTVYLQMNSLKPEDTAVYYCNAYQPRYGYWGQGTQVTVSS | high polyreactivity |
| QDQLVESGGGLVQAGGSLRLSCAAYGSTFPVYTMGWYRQAPRKEREFVAAITGSGGRTYYADSVKGRFTISRDNAKNTVFLQMNSLKPEDTAVYYCNAYPKGRYAAAFPGMDYWGQGTQVTVSS | high polyreactivity |
| QDQLVESGGGLVQAGGSLRLSCAAYGYTFDDNAMGWFRQAPGKERELVAAINWDGASTYADSVKGRFTISRDNAKNTVYLQMNSLKPEDTAVYYCTASGKDIFNYVYQGYDYCGQGTQVTVSS | low polyreactivity |
| QDQLVESGGGLVQAGGSLRLSCADYGINFYSYAMGWYRQAPGKEREFVAAISTGSSTNYADSVKGRFTISRDNAKNNVYLQMISLKPEDTAVYYCAKSTAVKPYAYRESGFIYDYWGQGTQLTVSS | low polyreactivity |
| QDQLVESGGGLVQAGGSLRLSCAPSGRIFTTYGMGWYSQAPGKERELVAAISRSGGSTYYADSVKGRFTISRDNAKNTVYLQMNSLKPEDTAVYYCAAVPTSNSFRSSFYYWGQGTQVTVSS | high polyreactivity |
| QDQLVESGGGLVQAGGSLRLSCDASGSTFLVYAMGWYRQAPGKERELVAAITQIDGSTYYADSVKGRFTISRDNAKNTVYLQMNSLKPEDTAVYYCAARYFWTYEYDYWGHGTQVTVSS | low polyreactivity |
| QDQLVESGGGLVQAGGSLRLSCGASGGIFWKYAMGWYRQAPGKERELVAAISRSGSSTYYADSVKGRFTISRDNAKNTVYLQMNSLKPEDTAVYYCAAQPYDSNYGNSGYWGQGTQVTVSS | high polyreactivity |

Reference: the nanobody polyreactivity screen of Harvey et al. (2022)
